Earlier results on two substances are cited in PMC9101112.

Targets include tynorphin; Ile-Val-Tyr-Pro-Trp; Trp-Val-Tyr-Pro-Trp; spinorphin (Bos taurus); valorphin (Bos taurus).
Common to all, as to experiment: enzyme inhibition

DPP III (from UniProt O55096): the Ki in the data set with tynorphin was 2670 nM; in the data set with Ile-Val-Tyr-Pro-Trp, 100 nM; with Trp-Val-Tyr-Pro-Trp it was 126 nM.

Regarding DPP III (from UniProt Q9NY33), the Ki was 2420 nM in the data set with spinorphin (Bos taurus) and 49 nM with valorphin (Bos taurus).
